Results reported in patent US20090042993.

Key:
[1] = biological target: BACE1-myc (myc-tagged at the C-terminus version of BACE1), P56817
[2] = biological target: BACE1 (β-site APP cleaving enzyme 1), native form BACE1WT, P56817
[3] = biological target: BACE1Ala (BACE1 with the seven acetylated lysine residues mutated to alanine), P56817
Chain of BACE1Ala (BACE1 with the seven acetylated lysine residues mutated to alanine), P56817 (P56817 other isoform, or with tags, fused parts or gaps, change not shown): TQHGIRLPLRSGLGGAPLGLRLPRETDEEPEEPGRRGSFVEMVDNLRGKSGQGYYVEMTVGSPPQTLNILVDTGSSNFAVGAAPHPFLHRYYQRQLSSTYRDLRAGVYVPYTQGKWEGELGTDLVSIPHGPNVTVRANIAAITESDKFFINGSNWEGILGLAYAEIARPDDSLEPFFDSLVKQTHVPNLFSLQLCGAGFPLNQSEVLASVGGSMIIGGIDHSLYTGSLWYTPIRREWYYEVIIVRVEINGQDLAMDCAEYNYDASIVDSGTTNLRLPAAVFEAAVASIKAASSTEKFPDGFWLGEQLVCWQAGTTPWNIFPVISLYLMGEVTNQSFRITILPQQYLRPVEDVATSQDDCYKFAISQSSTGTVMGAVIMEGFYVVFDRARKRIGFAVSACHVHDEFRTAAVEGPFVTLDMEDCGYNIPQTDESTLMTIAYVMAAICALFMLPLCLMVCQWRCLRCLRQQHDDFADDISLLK

Chain of BACE1-myc (myc-tagged at the C-terminus version of BACE1), P56817 (P56817 46-501): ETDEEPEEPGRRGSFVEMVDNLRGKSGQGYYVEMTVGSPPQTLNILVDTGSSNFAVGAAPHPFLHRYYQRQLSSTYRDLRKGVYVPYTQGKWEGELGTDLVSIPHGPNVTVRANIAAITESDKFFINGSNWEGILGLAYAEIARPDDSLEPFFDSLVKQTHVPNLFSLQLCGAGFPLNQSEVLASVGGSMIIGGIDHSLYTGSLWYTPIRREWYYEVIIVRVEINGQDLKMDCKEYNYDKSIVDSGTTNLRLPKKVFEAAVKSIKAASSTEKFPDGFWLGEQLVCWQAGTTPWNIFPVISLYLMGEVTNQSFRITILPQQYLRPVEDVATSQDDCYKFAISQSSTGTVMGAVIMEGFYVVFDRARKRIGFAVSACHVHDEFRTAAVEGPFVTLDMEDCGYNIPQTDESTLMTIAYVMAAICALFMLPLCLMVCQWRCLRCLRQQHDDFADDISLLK
Chain of BACE1 (β-site APP cleaving enzyme 1), native form BACE1WT, P56817 (P56817 46-501): as above

B1: purified recombinant HAT fragment of p300 (histone acetyl transferase domain of recombinant CBP/p300) (protein)
chain: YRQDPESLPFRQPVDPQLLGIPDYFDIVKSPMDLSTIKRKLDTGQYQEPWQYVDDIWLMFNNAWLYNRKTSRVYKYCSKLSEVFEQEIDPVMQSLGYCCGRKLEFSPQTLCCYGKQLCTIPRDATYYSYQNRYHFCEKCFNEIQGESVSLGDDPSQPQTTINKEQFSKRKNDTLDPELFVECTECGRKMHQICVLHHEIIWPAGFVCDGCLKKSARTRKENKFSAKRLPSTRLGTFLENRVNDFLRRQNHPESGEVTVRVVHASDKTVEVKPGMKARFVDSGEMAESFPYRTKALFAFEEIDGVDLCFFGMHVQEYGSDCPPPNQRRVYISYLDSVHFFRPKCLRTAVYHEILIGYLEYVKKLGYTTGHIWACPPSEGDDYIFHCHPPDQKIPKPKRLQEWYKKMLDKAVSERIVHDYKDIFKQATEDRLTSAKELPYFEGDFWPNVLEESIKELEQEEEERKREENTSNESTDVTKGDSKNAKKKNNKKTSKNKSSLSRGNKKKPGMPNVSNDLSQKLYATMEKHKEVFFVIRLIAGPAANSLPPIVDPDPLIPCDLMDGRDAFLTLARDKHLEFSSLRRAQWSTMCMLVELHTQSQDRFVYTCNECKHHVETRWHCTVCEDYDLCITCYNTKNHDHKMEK
- in vitro acetylation ([3H]Acetyl-CoA incorporation into BACE1, scintillation counting) [1]: BACE1 can be acetylated in vitro, provided that is incubated in the presence of an enzymatically active acetyltransferase
- in vitro acetylation ([3H]Acetyl-CoA incorporation into BACE1, scintillation counting) [2]: resulted in acetylation of BACE1WT
- in vitro acetylation ([3H]Acetyl-CoA incorporation into BACE1, scintillation counting) [3]: but not BACE1Ala
